Experimental findings from publication PMC11605450, “Azotobacter vinelandii scaffold protein NifU transfers iron to NifQ as part of the iron-molybdenum cofactor biosynthesis pathway for nitrogenase” (The Journal of Biological Chemistry, 2024) are described below.

In assay [1] the target is apo-NifQH (A. vinelandii NifQ, C-terminal 6xHis, without [Fe-S] cluster) (A. vinelandii) (UniProt P11068). The experiment in a line: pull-down; apo-NifQH, AS-NifUS and SNifS (10 nmol of each) incubated together 5 min, anaerobic, buffer W (100 mM Tris-HCl pH 8.0, 150 mM NaCl, 10% glycerol); Ni-NTA agarose column, washes with 5 and 20 mM imidazole, elution with 150 mM imidazole; immunoblots. A general note: Immunoblotting shows a protein as a band on a membrane.

The target of assay [2] is R-NifUS (A. vinelandii NifU, C-terminal Strep-tag, with in vitro reconstituted [Fe-S] clusters) (A. vinelandii) (UniProt P05340).
Assay [3] addresses T1, apo-NifQH (A. vinelandii NifQ, C-terminal 6xHis, without [Fe-S] cluster) (A. vinelandii, UniProt P11068 1-195).
T1 construct: Purified aerobically to destroy the [Fe-S] clusters; source: E. coli BL21 (DE3), purified (Ni-NTA, aerobic conditions); not shown: His6, C-terminal, kept
T1 sequence (looked up): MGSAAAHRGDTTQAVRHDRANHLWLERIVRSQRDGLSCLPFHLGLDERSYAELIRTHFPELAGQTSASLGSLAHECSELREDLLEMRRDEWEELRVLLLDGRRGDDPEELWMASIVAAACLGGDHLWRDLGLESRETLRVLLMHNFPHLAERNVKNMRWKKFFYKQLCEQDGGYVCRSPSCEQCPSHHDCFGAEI
The experiment in a line: pull-down; 10 nmol of Strep-tagged bait (AS-NifUS or R-IscUS) immobilised on a Streptactin-XT column in anaerobic buffer A (50 mM Tris-HCl pH 8.0, 100 mM NaCl, 10% glycerol), 10 nmol NifQH loaded onto the charged column, washed, eluted with 50 mM biotin. Conditions: both partners purified.

Chain of R-NifUS (A. vinelandii NifU, C-terminal Strep-tag, with in vitro reconstituted [Fe-S] clusters) (A. vinelandii) (P05340 whole entry): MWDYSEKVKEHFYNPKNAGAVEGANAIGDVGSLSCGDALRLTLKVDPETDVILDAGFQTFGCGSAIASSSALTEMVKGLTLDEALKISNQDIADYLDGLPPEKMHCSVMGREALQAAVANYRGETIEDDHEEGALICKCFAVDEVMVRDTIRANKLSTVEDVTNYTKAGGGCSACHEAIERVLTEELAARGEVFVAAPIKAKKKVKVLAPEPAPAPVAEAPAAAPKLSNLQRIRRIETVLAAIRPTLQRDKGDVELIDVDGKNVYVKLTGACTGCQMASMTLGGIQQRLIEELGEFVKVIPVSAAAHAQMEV

“AS-NifUS (as-isolated A. vinelandii NifU, C-terminal Strep-tag) (from UniProt P05340 1-312) (natural protein)” gave a percent of the total protein co-eluted in assay [1] of 10%. For “apo-NifQH (A. vinelandii NifQ, C-terminal 6xHis, without [Fe-S] cluster) (from UniProt P11068 1-195) (natural protein)”, the iron content per monomer of NifQH in the flowthrough of a Strep-tactin column after 5 min incubation of apo-NifQH with R-NifUS (Fe per NifQH monomer (molar ratio)) in assay [2] stood at 1.

B1: R-IscUS (A. vinelandii IscU, Strep-tag, with in vitro reconstituted [Fe-S] clusters) (natural protein, UniProt O31270 1-128, looked up)
chain: MAYSDKVIDHYENPRNVGKLDAQDPDVGTGMVGAPACGDVMRLQIKVNEQGIIEDAKFKTYGCGSAIASSSLATEWMKGRTLEEAETIKNTQIAEELALPPVKIHCSVLAEDAIKAAVRDYKHKKGLV
notes: also called R-SIscU; source: E. coli BL21 (DE3), purified (Strep-Tactin XT, anaerobic), [Fe-S] clusters reconstituted in vitro; not shown: Strep-tag, C-terminal, kept
For B1, the binding result in assay [3] is listed as “binds”.
